For the test, the target named is FIV Pr50^Gag-His6-tagged protein (feline immunodeficiency virus Gag precursor polyprotein) (feline immunodeficiency virus (Petaluma strain 34TF10)). Kind of test: dynamic light scattering; purified Pr50^Gag in solution, HEPES-KOH buffer (pH 8); hydrodynamic radius from volume and number distribution.

A word on the stoichiometry N: it is the number of molecules, sites or subunits per partner or assembly. “FIV Pr50^Gag-His6-tagged protein (feline immunodeficiency virus Gag precursor polyprotein) (natural protein)” gave a stoichiometry N of 2.

The values are drawn from article PMC10726167.
